{
  "source": "paper PMC5374546",
  "molecules": {"B1": {"name": "derCD23 (soluble monomeric lectin-like head domain of human CD23, Ser156-Glu298) (domain or fragment)", "chain": "SGFVCNTCPEKWINFQRKCYYFGKGTKQWVHARYACDDMEGQLVSIHSPEEQDFLTKHASHTGSWIGLRNLDLKGEFIWVDGSHVDYSNWAPGEPTSRSQGEDCVMMRGSGRWNDAFCDRKLGAWVCDRLATCTPPASEGSAE"}},
  "key": {"[1]": {"biological_target": "Fcε3-4 Fcε3-4 (Homo sapiens) (UniProt P01854)", "sequence (P01854 209-426)": "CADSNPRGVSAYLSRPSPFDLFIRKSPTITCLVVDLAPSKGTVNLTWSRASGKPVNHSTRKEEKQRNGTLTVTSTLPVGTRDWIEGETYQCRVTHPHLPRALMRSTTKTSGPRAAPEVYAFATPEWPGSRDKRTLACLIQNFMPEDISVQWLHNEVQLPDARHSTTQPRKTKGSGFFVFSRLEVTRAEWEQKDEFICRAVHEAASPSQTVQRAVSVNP", "test": "sedimentation equilibrium", "settings": "cited from earlier work"}, "[2]": {"biological_target": "IgE-Fc (Val224-Lys547, with glycosylation-site double mutation N265Q and N371Q) (human)", "test": "ITC; 260 uM derCD23 in the syringe titrated into 12.5 uM IgE-Fc dimer in the cell; 25 mM Tris-HCl pH 7.4, 125 mM NaCl, 4 mM CaCl2; 25 °C; iTC200; two-site (2:1) binding model"}},
  "data": [
    {"molecule": "derCD23 derCD23 (from UniProt P06734)", "values": [
      {"measurement": "Kd", "setting": "[1]", "result": 10, "unit": "µM"}
    ]},
    {"molecule": "B1", "values": [
      {"measurement": "KD1 (site 1 of the two-site model)", "setting": "[2]", "result": 1.2, "unit": "µM"},
      {"measurement": "KD2 (site 2 of the two-site model)", "setting": "[2]", "result": 14.4, "unit": "µM"},
      {"measurement": "dH1 (site 1 of the two-site model)", "setting": "[2]", "result": -30.1, "unit": "kJ/mol"},
      {"measurement": "dH2 (site 2 of the two-site model)", "setting": "[2]", "result": -15.5, "unit": "kJ/mol"},
      {"measurement": "stoichiometry N (derCD23 per IgE-Fc dimer)", "setting": "[2]", "result": 2}
    ]}
  ]
}
